How the values were obtained:
HeLa Kyoto [1] = experiment: solubility in G1/S (NP-40 vs SDS abundance) (log2 ratio); higher = more soluble; conditions: cell cycle stage: G1/S
HeLa Kyoto [2] = experiment: thermal stability score vs G1/S (z-score of summed log2 fold changes over temperatures); higher = more thermally stable than in G1/S
HeLa Kyoto [3] = experiment: solubility change mitosis vs G1/S (difference of NP-40 vs SDS log2 ratios) (log2 ratio difference); higher = more soluble in mitosis
HeLa Kyoto [4] = experiment: melting temperature (median over replicates), in situ; higher = more thermally stable
[5] = cell cycle stage: early G1 (4.5 h after nocodazole release)
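Throughout, for melting temperature (median over replicates), in situ: HeLa Kyoto cells synchronized by double thymidine or nocodazole block, proteins quantified by TMT10plex mass spectrometry, three independent biological replicates.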
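Throughout, for solubility change mitosis vs G1/S (difference of NP-40 vs SDS log2 ratios): synchronized HeLa Kyoto cells (double thymidine block for G1/S, nocodazole release for mitosis), protein amounts in NP-40 versus SDS lysates quantified by mass spectrometry, three biological replicates.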
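Throughout, for solubility in G1/S (NP-40 vs SDS abundance): HeLa Kyoto cells arrested at G1/S by double thymidine block, proteins quantified by TMT10plex mass spectrometry in mild NP-40 versus SDS extracts, three biological replicates.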
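Throughout, for thermal stability score vs G1/S (z-score of summed log2 fold changes over temperatures): synchronized HeLa Kyoto cells, proteins quantified by TMT10plex mass spectrometry, three biological replicates, mitosis taken 0.5 h after nocodazole release, G1/S directly after double thymidine block.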

UBE2Q1, sequence (chain, as listed by the source): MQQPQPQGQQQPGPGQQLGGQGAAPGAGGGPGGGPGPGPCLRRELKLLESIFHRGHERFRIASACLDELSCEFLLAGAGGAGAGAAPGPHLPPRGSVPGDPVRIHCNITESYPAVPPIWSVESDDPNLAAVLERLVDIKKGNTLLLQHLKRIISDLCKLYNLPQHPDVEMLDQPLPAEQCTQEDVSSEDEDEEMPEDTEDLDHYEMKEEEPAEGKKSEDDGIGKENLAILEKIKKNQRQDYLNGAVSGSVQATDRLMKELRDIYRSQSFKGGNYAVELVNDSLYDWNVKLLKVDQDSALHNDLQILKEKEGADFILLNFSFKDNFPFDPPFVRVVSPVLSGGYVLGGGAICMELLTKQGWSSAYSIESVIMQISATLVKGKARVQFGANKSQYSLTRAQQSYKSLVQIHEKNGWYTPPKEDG

Substance | solubility in G1/S (log2) (HeLa Kyoto [1]) | thermal stability score (HeLa Kyoto [2]; [5]) | thermal stability score (HeLa Kyoto [2]; cell cycle stage: mitosis) | solubility change mitosis (log2) (HeLa Kyoto [3]) | melting temperature (HeLa Kyoto [4]; cell cycle stage: G1/S) [°C] | melting temperature (HeLa Kyoto [4]; cell cycle stage: mitosis) [°C]
MAEVGEDSGARALLALRSAPCSPVLCAAAAAAAFPAAAPPPAPAQPQPPPGPPPPPPPPLPPGAIAGAGSSGGSSGVSGDSAVAGAAPALVAAAAASVRQSPGPALARLEGREFEFLMRQPSVTIGRNSSQGSVDLSMGLSSFISRRHLQLSFQEPHFYLRCLGKNGVFVDGAFQRRGAPALQLPKQCTFRFPSTAIKIQFTSLYHKEEAPASPLRPLYPQISPLKIHIPEPDLRSMVSPVPSPTGTISVPNSCPASPRGAGSSSYRFVQNVTSDLQLAAEFAAKAASEQQADTSGGDSPKDESKPPFSYAQLIVQAISSAQDRQLTLSGIYAHITKHYPYYRTADKGWQNSIRHNLSLNRYFIKVPRSQEEPGKGSFWRIDPASEAKLVEQAFRKRRQRGVSCFRTPFGPLSSRSAPASPTHPGLMSPRSGGLQTPECLSREGSPIPHDPEFGSKLASVPEYRYSQSAPGSPVSAQPVIMAVPPRPSSLVAKPVAYMPASIVTSQQPAGHAIHVVQQAPTVTMVRVVTTSANSANGYILTSQGAAGGSHDAAGAAVLDLGSEARGLEEKPTIAFATIPAAGGVIQTVASQMAPGVPGHTVTILQPATPVTLGQHHLPVRAVTQNGKHAVPTNSLAGNAYALTSPLQLLATQASSSAPVVVTRVCEVGPKEPAAAVAATATTTPATATTASASASSTGEPEVKRSRVEEPSGAVTTPAGVIAAAGPQGPGTGE [FOXK1] | 0.588 | 2.52 | 2.09 | -0.0982 | 49.1 | 51
MAALEEEFTLSSVVLSAGPEGLLGVEQSDKTDQFLVTDSGRTVILYKVSDQKPLGSWSVKQGQIITCPAVCNFQTGEYVVVHDNKVLRIWNNEDVNLDKVFKATLSAEVYRILSVQGTEPLVLFKEGAVRGLEALLADPQQKIETVISDEEVIKWTKFFVVFRHPVLIFITEKHGNYFAYVQMFNSRILTKYTLLLGQDENSVIKSFTASVDRKFISLMSLSSDGCIYETLIPIRPADPEKNQSLVKSLLLKAVVSGNARNGVALTALDQDHVAVLGSPLAASKECLSVWNIKFQTLQTSKELPQGTSGQLWYYGEHLFMLHGKSLTVIPYKCEVSSLAGALGKLKHSQDPGTHVVSHFVNWETPQGCGLGFQNSEQSRRILRRRKIEVSLQPEVPPSKQLLSTIMKDSEKHIEVEVRKFLALKQTPDFHTVIGDTVTGLLERCKAEPSFYPRNCLMQLIQTHVLSYSLCPDLMEIALKKKDVQLLQLCLQQFPDIPESVTCACLKIFLSIGDDSLQETDVNMESVFDYSINSVHDEKMEEQTEILQNGFNPEEDKCNNCDQELNKKPQDETKESTSCPVVQKRAALLNAILHSAYSETFLLPHLKDIPAQHITLFLKYLYFLYLKCSENATMTLPGIHPPTLNQIMDWICLLLDANFTVVVMMPEAKRLLINLYKLVKSQISVYSELNKIEVSFRELQKLNQEKNNRGLYSIEVLELF [NOL11] | -0.963 | -2.5 | -6.66 | 0.471 | 55.1 | 52.9
UBE2Q1 | 0.255 | 0.426 | 0.875 | -0.042 | 50 | 50.3
MVAPVLETSHVFCCPNRVRGVLNWSSGPRGLLAFGTSCSVVLYDPLKRVVVTNLNGHTARVNCIQWICKQDGSPSTELVSGGSDNQVIHWEIEDNQLLKAVHLQGHEGPVYAVHAVYQRRTSDPALCTLIVSAAADSAVRLWSKKGPEVMCLQTLNFGNGFALALCLSFLPNTDVPILACGNDDCRIHIFAQQNDQFQKVLSLCGHEDWIRGVEWAAFGRDLFLASCSQDCLIRIWKLYIKSTSLETQDDDNIRLKENTFTIENESVKIAFAVTLETVLAGHENWVNAVHWQPVFYKDGVLQQPVRLLSASMDKTMILWAPDEESGVWLEQVRVGEVGGNTLGFYDCQFNEDGSMIIAHAFHGALHLWKQNTVNPREWTPEIVISGHFDGVQDLVWDPEGEFIITVGTDQTTRLFAPWKRKDQSQVTWHEIARPQIHGYDLKCLAMINRFQFVSGADEKVLRVFSAPRNFVENFCAITGQSLNHVLCNQDSDLPEGATVPALGLSNKAVFQGDIASQPSDEEELLTSTGFEYQQVAFQPSILTEPPTEDHLLQNTLWPEVQKLYGHGYEIFCVTCNSSKTLLASACKAAKKEHAAIILWNTTSWKQVQNLVFHSLTVTQMAFSPNEKFLLAVSRDRTWSLWKKQDTISPEFEPVFSLFAFTNKITSVHSRIIWSCDWSPDSKYFFTGSRDKKVVVWGECDSTDDCIEHNIGPCSSVLDVGGAVTAVSVCPVLHPSQRYVVAVGLECGKICLYTWKKTDQVPEINDWTHCVETSQSQSHTLAIRKLCWKNCSGKTEQKEAEGAEWLHFASCGEDHTVKIHRVNKCAL [ELP2] | -0.174 | -0.251 | -1.61 | -0.181 | 51.7 | 51.4
MLERRCRGPLAMGLAQPRLLSGPSQESPQTLGKESRGLRQQGTSVAQSGAQAPGRAHRCAHCRRHFPGWVALWLHTRRCQARLPLPCPECGRRFRHAPFLALHRQVHAAATPDLGFACHLCGQSFRGWVALVLHLRAHSAAKRPIACPKCERRFWRRKQLRAHLRRCHPPAPEARPFICGNCGRSFAQWDQLVAHKRVHVAEALEEAAAKALGPRPRGRPAVTAPRPGGDAVDRPFQCACCGKRFRHKPNLIAHRRVHTGERPHQCPECGKRFTNKPYLTSHRRIHTGEKPYPCKECGRRFRHKPNLLSHSKIHKRSEGSAQAAPGPGSPQLPAGPQESAAEPTPAVPLKPAQEPPPGAPPEHPQDPIEAPPSLYSCDDCGRSFRLERFLRAHQRQHTGERPFTCAECGKNFGKKTHLVAHSRVHSGERPFACEECGRRFSQGSHLAAHRRDHAPDRPFVCPDCGKAFRHKPYLAAHRRIHTGEKPYVCPDCGKAFSQKSNLVSHRRIHTGERPYACPDCDRSFSQKSNLITHRKSHIRDGAFCCAICGQTFDDEERLLAHQKKHDV [REPIN1] | -0.0762 | -0.836 | -2.05 | -0.0234 | 54.4 | 52.9
PKN1 | 0.0374 | 0.284 | 0.47 | -0.112 | 49.9 | 50.6
MPLENLEEEGLPKNPDLRIAQLRFLLSLPEHRGDAAVRDELMAAVRDNNMAPYYEALCKSLDWQIDVDLLNKMKKANEDELKRLDEELEDAEKNLGESEIRDAMMAKAEYLCRIGDKEGALTAFRKTYDKTVALGHRLDIVFYLLRIGLFYMDNDLITRNTEKAKSLIEEGGDWDRRNRLKVYQGLYCVAIRDFKQAAELFLDTVSTFTSYELMDYKTFVTYTVYVSMIALERPDLREKVIKGAEILEVLHSLPAVRQYLFSLYECRYSVFFQSLAVVEQEMKKDWLFAPHYRYYVREMRIHAYSQLLESYRSLTLGYMAEAFGVGVEFIDQELSRFIAAGRLHCKIDKVNEIVETNRPDSKNWQYQETIKKGDLLLNRVQKLSRVINM [PSMD6] | -0.15 | 1 | 1.09 | -0.189 | 53.3 | 53.2
METSAPRAGSQVVATTARHSAAYRADPLRVSSRDKLTEMAASSQGNFEGNFESLDLAEFAKKQPWWRKLFGQESGPSAEKYSVATQLFIGGVTGWCTGFIFQKVGKLAATAVGGGFFLLQLANHTGYIKVDWQRVEKDMKKAKEQLKIRKSNQIPTEVRSKAEEVVSFVKKNVLVTGGFFGGFLLGMAS [FUNDC2] | 0.0627 | -0.847 | -1.68 | -0.0574 | 58.2 | 55.9
ASCC1 | -0.115 | 1.88 | 1.1 | 0.0348 | 50.3 | 50.7
MQKIKSLMTRQGLKSPQESLSDLGAIESLRVPGKEEFRELREQPSDPQAEQELINSIEQVYFSVDSFDIVKYELEKLPPVLNLQELEAYRDKLKQQQAAVSKKVADLILEKQPAYVKELERVTSLQTGLQLAAVICTNGRRHLNIAKEGFTQASLGLLANQRKRQLLIGLLKSLRTIKTLQRTDVRLSEMLEEEDYPGAIQLCLECQKAASTFKHYSCISELNSKLQDTLEQIEEQLDVALSKICKNFDINHYTKVQQAYRLLGKTQTAMDQLHMHFTQAIHNTVFQVVLGYVELCAGNTDTKFQKLQYKDLCTHVTPDSYIPCLADLCKALWEVMLSYYRTMEWHEKHDNEDTASASEGSNMIGTEETNFDRGYIKKKLEHGLTRIWQDVQLKVKTYLLGTDLSIFKYDDFIFVLDIISRLMQVGEEFCGSKSEVLQESIRKQSVNYFKNYHRTRLDELRMFLENETWELCPVKSNFSILQLHEFKFMEQSRSPSVSPSKQPVSTSSKTVTLFEQYCSGGNPFEIQANHKDEETEDVLASNGYESDEQEKSAYQEYDSDSDVPEELKRDYVDEQTGDGPVKSVSRETLKSRKKSDYSLNKVNAPILTNTTLNVIRLVGKYMQMMNILKPIAFDVIHFMSQLFDYYLYAIYTFFGRNDSLESTGLGLSSSRLRTTLNRIQESLIDLEVSADPTATLTAAEERKEKVPSPHLSHLVVLTSGDTLYGLAERVVATESLVFLAEQFEFLQPHLDAVMPAVKKPFLQQFYSQTVSTASELRKPIYWIVAGKALDYEQMLLLMANVKWDVKEIMSQHNIYVDALLKEFEQFNRRLNEVSKRVRIPLPVSNILWEHCIRLANRTIVEGYANVKKCSNEGRALMQLDFQQFLMKLEKLTDIRPIPDKEFVETYIKAYYLTENDMERWIKEHREYSTKQLTNLVNVCLGSHINKKARQKLLAAIDDIDRPKR [VPS50] | -0.0656 | 0.281 | 0.511 | -0.108 | 50.8 | 49.6
MGNAGSMDSQQTDFRAHNVPLKLPMPEPGELEERFAIVLNAMNLPPDKARLLRQYDNEKKWELICDQERFQVKNPPHTYIQKLKGYLDPAVTRKKFRRRVQESTQVLRELEISLRTNHIGWVREFLNEENKGLDVLVEYLSFAQYAVTFDFESVESTVESSVDKSKPWSRSIEDLHRGSNLPSPVGNSVSRSGRHSALRYNTLPSRRTLKNSRLVSKKDDVHVCIMCLRAIMNYQYGFNMVMSHPHAVNEIALSLNNKNPRTKALVLELLAAVCLVRGGHEIILSAFDNFKEVCGEKQRFEKLMEHFRNEDNNIDFMVASMQFINIVVHSVEDMNFRVHLQYEFTKLGLDEYLDKLKHTESDKLQVQIQAYLDNVFDVGALLEDAETKNAALERVEELEENISHLSEKLQDTENEAMSKIVELEKQLMQRNKELDVVREIYKDANTQVHTLRKMVKEKEEAIQRQSTLEKKIHELEKQGTIKIQKKGDGDIAILPVVASGTLSMGSEVVAGNSVGPTMGAASSGPLPPPPPPLPPSSDTPETVQNGPVTPPMPPPPPPPPPPPPPPPPPPPPPLPGPAAETVPAPPLAPPLPSAPPLPGTSSPTVVFNSGLAAVKIKKPIKTKFRMPVFNWVALKPNQINGTVFNEIDDERILEDLNVDEFEEIFKTKAQGPAIDLSSSKQKIPQKGSNKVTLLEANRAKNLAITLRKAGKTADEICKAIHVFDLKTLPVDFVECLMRFLPTENEVKVLRLYERERKPLENLSDEDRFMMQFSKIERLMQKMTIMAFIGNFAESIQMLTPQLHAIIAASVSIKSSQKLKKILEIILALGNYMNSSKRGAVYGFKLQSLDLLLDTKSTDRKQTLLHYISNVVKEKYHQVSLFYNELHYVEKAAAVSLENVLLDVKELQRGMDLTKREYTMHDHNTLLKEFILNNEGKLKKLQDDAKIAQDAFDDVVKYFGENPKTTPPSVFFPVFVRFVKAYKQAEEENELRKKQEQALMEKLLEQEALMEQQDPKSPSHKSKRQQQELIAELRRRQVKDNRHVYEGKDGAIEDIITVLKTVPFTARTAKRGSRFFCEPVLTEEYHY [FMNL2] | -0.0432 | 0.436 | 0.612 | -0.0897 | 50.8 | 
MSLQWTAVATFLYAEVFVVLLLCIPFISPKRWQKIFKSRLVELLVSYGNTFFVVLIVILVLLVIDAVREIRKYDDVTEKVNLQNNPGAMEHFHMKLFRAQRNLYIAGFSLLLSFLLRRLVTLISQQATLLASNEAFKKQAESASEAAKKYMEENDQLKKGAAVDGGKLDVGNAEVKLEEENRSLKADLQKLKDELASTKQKLEKAENQVLAMRKQSEGLTKEYDRLLEEHAKLQAAVDGPMDKKEE [BCAP31] | 0.132 | -4.24 | -4.65 | -0.101 | 55.5 | 55.5

— the supplement of paper PMC5998384
